In paper doi:10.1101/2025.11.06.687086 (bioRxiv, 2025):

Tests used:
A/USSR/90/1977 (H1N1) HA = target: T1, A/USSR/90/1977 (H1N1) HA (Influenza A virus A/USSR/90/1977 (H1N1), UniProt P03453, strain); experiment: ELISA; conditions: one partner purified
T1 construct: source: bought: Sino Biological

[1] = target: T2, A/Taiwan/01/1986 (H1N1) HA (Influenza A virus A/Taiwan/1/1986 (H1N1), UniProt F5CU03, strain); experiment: ELISA; conditions: one partner purified
T2 construct: source: bought: Sino Biological

[2] = target: A/Beijing/262/1995 (H1N1) HA (Influenza A virus A/Beijing/262/1995 …, UniProt B4UPF7, strain); experiment: ELISA; conditions: one partner purified
[3] = target: T3, A/Solomon Islands/3/2006 (H1N1) HA (Influenza A virus A/Solomon …, strain); experiment: ELISA; conditions: one partner purified
[4] = target: A/California/07/2009 (H1N1) HA (Influenza A virus A/California/07/2009 …, UniProt C3W5X2, strain); experiment: ELISA; conditions: one partner purified
[5] = target: T4, A/Michigan/45/2015 (H1N1) HA (Influenza A virus A/Michigan/45/2015 …, UniProt A0A1J0CXU0, strain); experiment: ELISA; conditions: one partner purified
[6] = target: T5, A/Japan/305/1957 (H2N2) HA (Influenza A virus A/Japan/305/1957 …, UniProt P03451, strain); experiment: ELISA; conditions: one partner purified
T5 construct: source: Sf9, baculovirus, purified from the supernatant (Ni Sepharose excel, SEC)

[7] = target: A/northern pintail/WA/40964/2014 (H5N8) HA (influenza A virus A/northern …, UniProt A0A0C4WPH5, strain); experiment: ELISA; conditions: one partner purified
[8] = target: T4, A/Michigan/45/2015 (H1N1) HA; experiment: BLI; conditions: both partners purified
[9] = target: T3, A/Solomon Islands/3/2006 (H1N1) HA; experiment: cryo-EM structure; conditions: both partners purified

Measured: binding result

B1: HB315 IgG (antibody, V domains shown)
VH: EVQLLESGGGLAQPGGSLRLSCTASGFTFSNFAMNWVRQAPGKGLEWVSFINSGSGSTYYADSVKGRFTISRDNSENTLFLQMNSLRAEDTAVYYCAKDLGRAIFGLVIPEGAFDIWGQGTMVTVSS
VL: EIVMTQSPSSLSASVGDRVTITCRASQSINNHLNWYQQKPGKAPKLLIYAASSLQSGVPSRFSGSGSGTDFTLTISSLQPADFATYHCQQSYGVPLTFGQGTKVEIK
not listed: [8] | [9]
binds: all other assays above

B2: HB315 Fab (Fab, V domains shown)
VH: EVQLLESGGGLAQPGGSLRLSCTASGFTFSNFAMNWVRQAPGKGLEWVSFINSGSGSTYYADSVKGRFTISRDNSENTLFLQMNSLRAEDTAVYYCAKDLGRAIFGLVIPEGAFDIWGQGTMVTVSS
VL: EIVMTQSPSSLSASVGDRVTITCRASQSINNHLNWYQQKPGKAPKLLIYAASSLQSGVPSRFSGSGSGTDFTLTISSLQPADFATYHCQQSYGVPLTFGQGTKVEIK
binds: [8] | [9]

B3: HB31 IgG (antibody, V domains shown)
VH: EVQLLESGGGLVQPGGSLRLSCTVSGFTSSNYDMSWVRQAPGKGLEWVSGISGTGRDTYYADSVKGRFTISRDNSKNTLSLQMNSLRADDTAVYFCARDRPVLRYFDWQPYGLDVWGKGTTVTVSS
VL: QSALTQPPSASGSPGQSVTISCTGTSSDVGGYNYVSWYQQYPSKAPKLMIYEVSKRPSGVPDRFSGSKSGNTASLTVSGLQAEDEADYYCNSYAGSNLYVFGTGTKVTVL
not listed: [8] | [9]
binds: all other assays above

B4: HB31 Fab (Fab, V domains shown)
VH: EVQLLESGGGLVQPGGSLRLSCTVSGFTSSNYDMSWVRQAPGKGLEWVSGISGTGRDTYYADSVKGRFTISRDNSKNTLSLQMNSLRADDTAVYFCARDRPVLRYFDWQPYGLDVWGKGTTVTVSS
VL: QSALTQPPSASGSPGQSVTISCTGTSSDVGGYNYVSWYQQYPSKAPKLMIYEVSKRPSGVPDRFSGSKSGNTASLTVSGLQAEDEADYYCNSYAGSNLYVFGTGTKVTVL
binds: [8] | [9]

B5: HB34 Fab (Fab, V domains shown)
VH: EVQLLESGGGLVQPGGSLRLSCTVSGFTSSNYDMSWVRQAPGKGLEWVSGISGTGRDTYYADSVKGRFTISRDNSKNTLSLQMNSLRADDTAVYFCARDRPVLRYFDWQPYGLDVWGKGTTVTVSS
VL: QSALTQPASVSGSPGQSITISCTGTSSDVGSYNLVSWYQQHPGKAPKLMIYEGSQRPSGVSNRFSGSKSGNTASLTISGLQAEDEADYYCCSYASSTSYVFGTGTKVTVL
binds: [8] | [9]

B6: HB34 IgG (antibody, V domains shown)
VH: EVQLLESGGGLVQPGGSLRLSCTVSGFTSSNYDMSWVRQAPGKGLEWVSGISGTGRDTYYADSVKGRFTISRDNSKNTLSLQMNSLRADDTAVYFCARDRPVLRYFDWQPYGLDVWGKGTTVTVSS
VL: QSALTQPASVSGSPGQSITISCTGTSSDVGSYNLVSWYQQHPGKAPKLMIYEGSQRPSGVSNRFSGSKSGNTASLTISGLQAEDEADYYCCSYASSTSYVFGTGTKVTVL
not listed: [8] | [9]
binds: all other assays above

B7: CR9114 Fab (Fab, V domains shown)
VH: QVQLVQSGAEVKKPGSSVKVSCKSSGGTSNNYAISWVRQAPGQGLDWMGGISPIFGSTAYAQKFQGRVTISADIFSNTAYMELNSLTSEDTAVYFCARHGNYYYYSGMDVWGQGTTVTVSS
VL: QSALTQPPAVSGTPGQRVTISCSGSDSNIGRRSVNWYQQFPGTAPKLLIYSNDQRPSVVPDRFSGSKSGTSASLAISGLQSEDEAEYYCAAWDDSLKGAVFGGGTQLTVL
binds: [8]

B8: FISW84 Fab (Fab, V domains shown)
VH: EVQLLESGGGLVQPGGSLRLSCAASGFTFSSYGMAWVRQAPGKGLEWVSFISATGLSTYFADSVKGRFTISRDTTKNTLYLQMNSLRADDTAVYFCARMRRTMIAFGGNDFWGQGTLVTVSS
VL: EVVMTQSPATLSVSPGEGATLSCRASQSVNTNVAWYQQKPGQAPRLLIYGASTRATGIPARFSGSGSGTEFTLTISTLQSEDFAVYYCQQYSNWPPITFGQGTRLEIK
notes: also called anchor Fab FISW84
binds: [8]
